Results published in paper PMC4615246.

Biological target: T1, LacI-CFP-Nup50 (human), Q9UKX7
T1 chain: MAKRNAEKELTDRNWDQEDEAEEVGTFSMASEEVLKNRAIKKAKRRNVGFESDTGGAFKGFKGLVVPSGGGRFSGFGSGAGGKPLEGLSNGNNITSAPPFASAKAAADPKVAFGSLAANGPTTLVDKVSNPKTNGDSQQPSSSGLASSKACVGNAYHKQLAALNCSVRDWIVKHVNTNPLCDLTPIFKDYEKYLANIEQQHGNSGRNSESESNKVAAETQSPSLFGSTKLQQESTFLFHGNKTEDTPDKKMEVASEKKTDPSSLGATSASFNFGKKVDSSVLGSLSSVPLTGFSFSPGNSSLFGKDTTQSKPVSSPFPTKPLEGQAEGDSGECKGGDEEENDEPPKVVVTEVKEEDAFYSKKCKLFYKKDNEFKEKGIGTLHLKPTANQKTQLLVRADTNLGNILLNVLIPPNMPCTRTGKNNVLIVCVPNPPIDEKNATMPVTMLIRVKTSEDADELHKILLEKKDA
Experiment: LacI/LacO array recruitment in cells
Settings: remark: other sources report otherwise

percent of transfected cells showing colocalization: 28%
B1: Nup93 (endogenous), Q8N1F7 1-819 (natural protein)
chain: MDTEGFGELLQQAEQLAAETEGISELPHVERNLQEIQQAGERLRSRTLTRTSQETADVKASVLLGSRGLDISHISQRLESLSAATTFEPLEPVKDTDIQGFLKNEKDNALLSAIEESRKRTFGMAEEYHRESMLVEWEQVKQRILHTLLASGEDALDFTQESEPSYISDVGPPGRSSLDNIEMAYARQIYIYNEKIVNGHLQPNLVDLCASVAELDDKSISDMWTMVKQMTDVLLTPATDALKNRSSVEVRMEFVRQALAYLEQSYKNYTLVTVFGNLHQAQLGGVPGTYQLVRSFLNIKLPAPLPGLQDGEVEGHPVWALIYYCMRCGDLLAASQVVNRAQHQLGEFKTWFQEYMNSKDRRLSPATENKLRLHYRRALRNNTDPYKRAVYCIIGRCDVTDNQSEVADKTEDYLWLKLNQVCFDDDGTSSPQDRLTLSQFQKQLLEDYGESHFTVNQQPFLYFQVLFLTAQFEAAVAFLFRMERLRCHAVHVALVLFELKLLLKSSGQSAQLLSHEPGDPPCLRRLNFVRLLMLYTRKFESTDPREALQYFYFLRDEKDSQGENMFLRCVSELVIESREFDMILGKLENDGSRKPGVIDKFTSDTKPIINKVASVAENKGLFEEAAKLYDLAKNADKVLELMNKLLSPVVPQISAPQSNKERLKNMALSIAERYRAQGISANKFVDSTFYLLLDLITFFDEYHSGHIDRAFDIIERLKLVPLNQESVEERVAAFRNFSDEIRHNLSEVLLATMNILFTQFKRLKGTSPSSSSRPQRVIEDRDSQLRSQARTLITFAGMIPYRTSGDTNARLVQMEVLMN
